Assay results published in article PMC3501478, “Structure of the Human Discs Large 1 PDZ2– Adenomatous Polyposis Coli Cytoskeletal Polarity Complex: Insight into Peptide Engagement and PDZ Clustering” (PLoS ONE, 2012).
No end group written: not given here. TMR = tetramethyl rhodamine

Biological target: T1, human Discs Large 1 (hDlg1) PDZ2 domain, residues 310-407 (human, UniProt Q12959 310-407)
T1 construct: N-terminal gly-ser cloning artifact left on the PDZ2 domain after thrombin cleavage of GST; human Discs Large 1 (Dlg1), PDZ2 domain, residues 310-407; synthetic gene with E. coli codon usage in pGEX-2T; In the final model chain A holds residues 310-406, with R310 modelled as alanine; also called hDlg PDZ2; source: E. coli BL21 DE3 pLysS, purified (Glutathione Sepharose, thrombin cleavage, SP …)
T1 sequence (Q12959 other isoform, or with tags, fused parts or gaps): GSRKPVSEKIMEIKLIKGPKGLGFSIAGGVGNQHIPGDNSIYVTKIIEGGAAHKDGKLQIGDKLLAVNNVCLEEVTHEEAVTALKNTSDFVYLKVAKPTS
Assay: crystal structure; 1.4 mM Dlg1 PDZ2 incubated with 1.7 mM APC C-terminal peptide (1:1.2) in 100 mM NaCl, 25 mM Tris pH 7.0, 0.1% beta-mercaptoethanol; hanging drop, 200 mM sodium acetate, 100 mM sodium cacodylate pH 6.25, 28% PEG 8000, 20°C; space group P212121, 2.0 Å
Settings: both partners purified

B1: APC C-terminal peptide RHSGSYLVTSV (residues 2833-2843) with N-terminal tetramethyl rhodamine (peptide)
peptide: {TMR}-RHSGSYLVTSV
notes: human Adenomatous Polyposis Coli (APC), C-terminal 11 residues 2833-2843 of the 2843 amino acid protein; Only residues 2838-2843 are seen in the electron density; the TMR fluorophore and the N-terminal five residues are not; also called APC peptide; TMR-APC peptide; source: synthetic peptide (Yale Keck Biotechnology Resource Laboratory), purified by HPLC
binding result: binds
